Measured values from CN115716874A (SHENZHEN ZHUORUN BIOTECHNOLOGY CO LTD, dated 2023).

Target: T1, AFP-L3与凝集素复合物 (Lens culinaris, UniProt P02870 31-210; P02870 218-269, limits assumed)
T1 construct: Non-covalent complex of recombinant AFP (AFP-L3 glycoform) with lentil lectin, mass ratio AFP-L3:lectin 1:5; immobilised on a CM5 chip for SPR; Native LCA consists of processed alpha and beta chains; also called AFP-L3与LCA复合物; AFP-L3-LCA复合物
T1 sequence 1: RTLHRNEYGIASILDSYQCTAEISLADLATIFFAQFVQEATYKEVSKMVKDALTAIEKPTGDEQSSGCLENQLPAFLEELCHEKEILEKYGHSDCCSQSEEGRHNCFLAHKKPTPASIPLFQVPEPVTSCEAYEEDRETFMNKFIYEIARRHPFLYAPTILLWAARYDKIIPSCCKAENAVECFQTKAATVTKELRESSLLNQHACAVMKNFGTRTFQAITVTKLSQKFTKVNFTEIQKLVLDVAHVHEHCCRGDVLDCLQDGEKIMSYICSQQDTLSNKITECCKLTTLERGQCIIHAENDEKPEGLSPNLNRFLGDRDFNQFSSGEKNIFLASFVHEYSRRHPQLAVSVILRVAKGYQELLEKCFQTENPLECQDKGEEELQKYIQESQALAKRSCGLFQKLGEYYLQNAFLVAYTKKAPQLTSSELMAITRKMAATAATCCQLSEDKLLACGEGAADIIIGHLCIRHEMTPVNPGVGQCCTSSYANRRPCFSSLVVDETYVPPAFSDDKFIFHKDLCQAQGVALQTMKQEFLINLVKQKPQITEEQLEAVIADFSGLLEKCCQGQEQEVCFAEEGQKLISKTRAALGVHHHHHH
T1 sequence 2: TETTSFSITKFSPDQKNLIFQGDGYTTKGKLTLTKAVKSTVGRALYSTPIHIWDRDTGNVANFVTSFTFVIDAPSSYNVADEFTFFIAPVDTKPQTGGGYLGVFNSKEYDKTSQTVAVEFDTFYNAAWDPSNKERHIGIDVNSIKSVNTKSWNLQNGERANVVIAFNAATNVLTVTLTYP
T1 sequence 3: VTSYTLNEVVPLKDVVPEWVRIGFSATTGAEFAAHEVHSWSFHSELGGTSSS
Test: SPR, Biacore T200, complex immobilised on CM5 chip, antibody as analyte

Kd: 2.66 nM
B1: Ab-03 (antibody, mouse IgG1, kappa, V domains shown)
VH: QVQLQQSGPEVVRPGVSVKISCKGSGYTFTDYAMQWVKQSHAKSLEWIGVISTYNGNTNYNQKFKGKATMTVDKSSSTAYMELARLTSEDSAIYYCARSLYYGSSPYAMDYWGQGTSVTVSS
VL: DIVMSQSPSSLAVSAGEKVTMSCKSSQSLLNSRTRKNYLAWYQQKPGQSPKLLIYWASTRESGVPDRFTGSGSGTDFTLTISSVQAEDLAVYYCKQSYNLFTFGSGTKLEIKR
notes: Mouse hybridoma antibody from ascites, Protein A purified; also called 针对AFP-L3与凝集素复合物的单克隆抗体; Ab-03抗体株
